From US20140087995A1 (published 2014)
Numbered stars: 1 amine (or outer) side, 2 acyl side, 3 side chain; on linkers, the order of the positions; unused ones are H or OH. Bridge positions count the residues as written; N and C are the ends. * marks the point of attachment. C20 diacid = O=C(O)CCCCCCCCCCCCCCCCCCC(=O)*; γGlu = O=C(O)[C@H](CCC(=O)[*:2])N[*:1]

T1: human amylin 3(a) receptor (human calcitonin receptor plus RAMP-3) (human, UniProt P30988 25-474; O60896 24-148, limits assumed)
T1 construct: whole, on cells; Whole cells in the luciferase assay (Assay II a); also called hAmylin-R; human amylin receptor
T1 sequence (looked up) 1: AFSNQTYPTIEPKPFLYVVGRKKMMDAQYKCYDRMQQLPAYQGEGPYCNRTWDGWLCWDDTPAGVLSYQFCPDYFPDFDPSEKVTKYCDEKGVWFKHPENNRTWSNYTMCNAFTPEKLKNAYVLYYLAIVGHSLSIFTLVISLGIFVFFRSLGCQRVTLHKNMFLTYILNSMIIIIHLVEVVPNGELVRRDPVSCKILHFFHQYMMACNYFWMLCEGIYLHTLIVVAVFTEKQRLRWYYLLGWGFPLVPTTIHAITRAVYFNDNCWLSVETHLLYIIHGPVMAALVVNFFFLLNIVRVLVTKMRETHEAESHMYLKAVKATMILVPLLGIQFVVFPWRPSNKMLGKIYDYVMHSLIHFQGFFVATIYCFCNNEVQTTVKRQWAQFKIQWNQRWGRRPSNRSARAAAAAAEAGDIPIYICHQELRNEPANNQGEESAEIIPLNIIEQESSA
T1 sequence (looked up) 2: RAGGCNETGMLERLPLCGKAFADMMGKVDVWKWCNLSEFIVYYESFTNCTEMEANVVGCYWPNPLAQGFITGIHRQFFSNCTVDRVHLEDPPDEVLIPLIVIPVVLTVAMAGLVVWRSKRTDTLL

T2: human calcitonin receptor (human, UniProt P30988 25-474)
T2 sequence (looked up): T1 sequence (looked up) 1

B1: N^α1-[(4S)-4-carboxy-4-(19-carboxynonadecanoylamino)butanoyl]-[Glu14,Arg17,Pro21,Pro25,Pro28,Pro29]-h-amylin (peptide)
peptide: {C20 diacid-γGlu}-KCNTATCATQRLAEFLRHSSPNFGPILPPTNVGSNTY-NH2
modifications: disulfide 2-7
SMILES: CC[C@H](C)[C@H](NC(=O)[C@@H]1CCCN1C(=O)CNC(=O)[C@H](Cc1ccccc1)NC(=O)[C@H](CC(N)=O)NC(=O)[C@@H]1CCCN1C(=O)[C@H](CO)NC(=O)[C@H](CO)NC(=O)[C@H](Cc1c[nH]cn1)NC(=O)[C@H](CCCNC(=N)N)NC(=O)[C@H](CC(C)C)NC(=O)[C@H](Cc1ccccc1)NC(=O)[C@H](CCC(=O)O)NC(=O)[C@H](C)NC(=O)[C@H](CC(C)C)NC(=O)[C@H](CCCNC(=N)N)NC(=O)[C@H](CCC(N)=O)NC(=O)[C@@H](NC(=O)[C@H](C)NC(=O)[C@@H]1CSSC[C@H](NC(=O)[C@H](CCCCN)NC(=O)CC[C@H](NC(=O)CCCCCCCCCCCCCCCCCCC(=O)O)C(=O)O)C(=O)N[C@@H](CC(N)=O)C(=O)N[C@@H]([C@@H](C)O)C(=O)N[C@@H](C)C(=O)N[C@@H]([C@@H](C)O)C(=O)N1)[C@@H](C)O)C(=O)N[C@@H](CC(C)C)C(=O)N1CCC[C@H]1C(=O)N1CCC[C@H]1C(=O)N[C@H](C(=O)N[C@@H](CC(N)=O)C(=O)N[C@H](C(=O)NCC(=O)N[C@@H](CO)C(=O)N[C@@H](CC(N)=O)C(=O)N[C@H](C(=O)N[C@@H](Cc1ccc(O)cc1)C(N)=O)[C@@H](C)O)C(C)C)[C@@H](C)O
notes: also called compound 6
B2: N^α1-[(4S)-4-carboxy-4-(19-carboxynonadecanoylamino)butanoyl]-[Glu14,Arg17,Pro21,Pro26,Pro37]-h-amylin (peptide)
peptide: {C20 diacid-γGlu}-KCNTATCATQRLAEFLRHSSPNFGAPLSSTNVGSNTP-NH2
modifications: disulfide 2-7
SMILES: CC(C)C[C@H](NC(=O)[C@H](CCCNC(=N)N)NC(=O)[C@H](CCC(N)=O)NC(=O)[C@@H](NC(=O)[C@H](C)NC(=O)[C@@H]1CSSC[C@H](NC(=O)[C@H](CCCCN)NC(=O)CC[C@H](NC(=O)CCCCCCCCCCCCCCCCCCC(=O)O)C(=O)O)C(=O)N[C@@H](CC(N)=O)C(=O)N[C@@H]([C@@H](C)O)C(=O)N[C@@H](C)C(=O)N[C@@H]([C@@H](C)O)C(=O)N1)[C@@H](C)O)C(=O)N[C@@H](C)C(=O)N[C@@H](CCC(=O)O)C(=O)N[C@@H](Cc1ccccc1)C(=O)N[C@@H](CC(C)C)C(=O)N[C@@H](CCCNC(=N)N)C(=O)N[C@@H](Cc1c[nH]cn1)C(=O)N[C@@H](CO)C(=O)N[C@@H](CO)C(=O)N1CCC[C@H]1C(=O)N[C@@H](CC(N)=O)C(=O)N[C@@H](Cc1ccccc1)C(=O)NCC(=O)N[C@@H](C)C(=O)N1CCC[C@H]1C(=O)N[C@@H](CC(C)C)C(=O)N[C@@H](CO)C(=O)N[C@@H](CO)C(=O)N[C@H](C(=O)N[C@@H](CC(N)=O)C(=O)N[C@H](C(=O)NCC(=O)N[C@@H](CO)C(=O)N[C@@H](CC(N)=O)C(=O)N[C@H](C(=O)N1CCC[C@H]1C(N)=O)[C@@H](C)O)C(C)C)[C@@H](C)O
notes: also called compound 5
B3: N^α1-[(4S)-4-carboxy-4-(19-carboxynonadecanoylamino)butanoyl]-[Glu14,Arg17,Pro21,Pro26]-h-amylin (peptide)
peptide: {C20 diacid-γGlu}-KCNTATCATQRLAEFLRHSSPNFGAPLSSTNVGSNTY-NH2
modifications: disulfide 2-7
SMILES: CC(C)C[C@H](NC(=O)[C@H](CCCNC(=N)N)NC(=O)[C@H](CCC(N)=O)NC(=O)[C@@H](NC(=O)[C@H](C)NC(=O)[C@@H]1CSSC[C@H](NC(=O)[C@H](CCCCN)NC(=O)CC[C@H](NC(=O)CCCCCCCCCCCCCCCCCCC(=O)O)C(=O)O)C(=O)N[C@@H](CC(N)=O)C(=O)N[C@@H]([C@@H](C)O)C(=O)N[C@@H](C)C(=O)N[C@@H]([C@@H](C)O)C(=O)N1)[C@@H](C)O)C(=O)N[C@@H](C)C(=O)N[C@@H](CCC(=O)O)C(=O)N[C@@H](Cc1ccccc1)C(=O)N[C@@H](CC(C)C)C(=O)N[C@@H](CCCNC(=N)N)C(=O)N[C@@H](Cc1c[nH]cn1)C(=O)N[C@@H](CO)C(=O)N[C@@H](CO)C(=O)N1CCC[C@H]1C(=O)N[C@@H](CC(N)=O)C(=O)N[C@@H](Cc1ccccc1)C(=O)NCC(=O)N[C@@H](C)C(=O)N1CCC[C@H]1C(=O)N[C@@H](CC(C)C)C(=O)N[C@@H](CO)C(=O)N[C@@H](CO)C(=O)N[C@H](C(=O)N[C@@H](CC(N)=O)C(=O)N[C@H](C(=O)NCC(=O)N[C@@H](CO)C(=O)N[C@@H](CC(N)=O)C(=O)N[C@H](C(=O)N[C@@H](Cc1ccc(O)cc1)C(N)=O)[C@@H](C)O)C(C)C)[C@@H](C)O
notes: also called compound 7
B4: N^α1-[(4S)-4-carboxy-4-(19-carboxynonadecanoylamino)butanoyl]-[Glu14,Arg17,Pro21,Pro27,Arg35]-h-amylin (peptide)
peptide: {C20 diacid-γGlu}-KCNTATCATQRLAEFLRHSSPNFGAIPSSTNVGSRTY-NH2
modifications: disulfide 2-7
SMILES: CC[C@H](C)[C@H](NC(=O)[C@H](C)NC(=O)CNC(=O)[C@H](Cc1ccccc1)NC(=O)[C@H](CC(N)=O)NC(=O)[C@@H]1CCCN1C(=O)[C@H](CO)NC(=O)[C@H](CO)NC(=O)[C@H](Cc1c[nH]cn1)NC(=O)[C@H](CCCNC(=N)N)NC(=O)[C@H](CC(C)C)NC(=O)[C@H](Cc1ccccc1)NC(=O)[C@H](CCC(=O)O)NC(=O)[C@H](C)NC(=O)[C@H](CC(C)C)NC(=O)[C@H](CCCNC(=N)N)NC(=O)[C@H](CCC(N)=O)NC(=O)[C@@H](NC(=O)[C@H](C)NC(=O)[C@@H]1CSSC[C@H](NC(=O)[C@H](CCCCN)NC(=O)CC[C@H](NC(=O)CCCCCCCCCCCCCCCCCCC(=O)O)C(=O)O)C(=O)N[C@@H](CC(N)=O)C(=O)N[C@@H]([C@@H](C)O)C(=O)N[C@@H](C)C(=O)N[C@@H]([C@@H](C)O)C(=O)N1)[C@@H](C)O)C(=O)N1CCC[C@H]1C(=O)N[C@@H](CO)C(=O)N[C@@H](CO)C(=O)N[C@H](C(=O)N[C@@H](CC(N)=O)C(=O)N[C@H](C(=O)NCC(=O)N[C@@H](CO)C(=O)N[C@@H](CCCNC(=N)N)C(=O)N[C@H](C(=O)N[C@@H](Cc1ccc(O)cc1)C(N)=O)[C@@H](C)O)C(C)C)[C@@H](C)O
notes: also called compound 16
B5: N^α1-[(4S)-4-carboxy-4-(19-carboxynonadecanoylamino)butanoyl]-[Glu14,Arg17,Pro21,Pro27,Asp35,Pro37]-h-amylin (peptide)
peptide: {C20 diacid-γGlu}-KCNTATCATQRLAEFLRHSSPNFGAIPSSTNVGSDTP-NH2
modifications: disulfide 2-7
SMILES: CC[C@H](C)[C@H](NC(=O)[C@H](C)NC(=O)CNC(=O)[C@H](Cc1ccccc1)NC(=O)[C@H](CC(N)=O)NC(=O)[C@@H]1CCCN1C(=O)[C@H](CO)NC(=O)[C@H](CO)NC(=O)[C@H](Cc1c[nH]cn1)NC(=O)[C@H](CCCNC(=N)N)NC(=O)[C@H](CC(C)C)NC(=O)[C@H](Cc1ccccc1)NC(=O)[C@H](CCC(=O)O)NC(=O)[C@H](C)NC(=O)[C@H](CC(C)C)NC(=O)[C@H](CCCNC(=N)N)NC(=O)[C@H](CCC(N)=O)NC(=O)[C@@H](NC(=O)[C@H](C)NC(=O)[C@@H]1CSSC[C@H](NC(=O)[C@H](CCCCN)NC(=O)CC[C@H](NC(=O)CCCCCCCCCCCCCCCCCCC(=O)O)C(=O)O)C(=O)N[C@@H](CC(N)=O)C(=O)N[C@@H]([C@@H](C)O)C(=O)N[C@@H](C)C(=O)N[C@@H]([C@@H](C)O)C(=O)N1)[C@@H](C)O)C(=O)N1CCC[C@H]1C(=O)N[C@@H](CO)C(=O)N[C@@H](CO)C(=O)N[C@H](C(=O)N[C@@H](CC(N)=O)C(=O)N[C@H](C(=O)NCC(=O)N[C@@H](CO)C(=O)N[C@@H](CC(=O)O)C(=O)N[C@H](C(=O)N1CCC[C@H]1C(N)=O)[C@@H](C)O)C(C)C)[C@@H](C)O
notes: also called compound 11

These binders were tested against T1, human amylin 3(a) receptor (human …) (assay: SPA competition binding, displacement of 125I-rat amylin from membranes of Amylin 3(a)/CRE-luc BHK cells (Assay V)).
Experimental: The binding assay was performed using scintillation proximity assay (SPA) beads (RPNQ0001) from PerkinElmer and cell membranes from the Amylin 3(a)/CRE-luc cells (as described in Assay (II)) were used. Membranes were prepared in the following way; the cells were rinsed with PBS and incubated with Versene for approximately 5 min before harvesting. The cells were flushed with PBS and the cell-suspension was centrifuged for 5 min at 1000 rpm. Cells were homogenized (ultrathurrax) in a buffer containing 20 mM Na-HEPES and 10 mM EDTA (pH 7.4) and centrifuged at 20.000 rpm for 15 min. The resulting pellet was resuspended, homogenized and centrifuged (20.000 rpm, 15 min) in a buffer containing 20 mM Na-HEPES and 0.1 mM EDTA (pH 7.4, buffer 2). The resulting pellet was resuspended in buffer 2 and protein concentration was measured (BCA protein Assay, Pierce). The homogenate was kept cold during the whole procedure. The membranes were kept at −80° C. until use. The assay was performed in a 384 well Optiplate (PerkinElmer) in a total volume of 40 ul. Membranes were mixed with SPA beads. Final concentration of membranes 35 ng/μL final and SPA beads was 0.05 mg/well. Test-compounds were dissolved in DMSO and further diluted in assay buffer (50 mM Hepes, pH 7.4, 1 mM CaCl2, 5 mM MgCl₂, 0.1% OA and 0.02% Tween20). […] The final mixture was incubated with shaking at 400 rpm for 120 min at 25° C. prior to centrifugation (1500 rpm, 10 min). Samples were analyzed on TopCounter™ (Packard). The IC₅₀ was calculated using (one site binding competition analysis) GraphPad Prism5 as a measure of receptor affinity.
With B1 the IC50 was 0.996 nM. With B2 the IC50 was 0.374 nM. In the case of B3, the IC50 is reported as 0.674 nM. Work on B4 yielded an IC50 of 0.894 nM. B5 showed an IC50 of 0.105 nM.

What follows are binders tested against T1, human amylin 3(a) receptor (human …) (assay: cell-based or functional assay).
B1 was tested, and the “Ratio hCT/hAmylin funct.” value was 5.7 and the “hAmylin-R funct. EC50” value was 128 pM. B2 was tested, and the “Ratio hCT/hAmylin funct.” value was 1 and the “hAmylin-R funct. EC50” value was 162 pM. With B3 the “Ratio hCT/hAmylin funct.” value was 4.5 and the “hAmylin-R funct. EC50” value was 255 pM. In the case of B4, the “Ratio hCT/hAmylin funct.” value is reported as 6.1 and the “hAmylin-R funct. EC50” value is reported as 363 pM. For B5, the “Ratio hCT/hAmylin funct.” value was 0.9 and the “hAmylin-R funct. EC50” value was 120 pM.

The binders below were run against T2, human calcitonin receptor (assay: cell-based or functional assay).
For B1, the “hCTR funct. EC50” value was 729 pM. B2 was tested, and the “hCTR funct. EC50” value was 160 pM. With B3 the “hCTR funct. EC50” value was 1160 pM. In the case of B4, the “hCTR funct. EC50” value is reported as 2220 pM. For B5, the “hCTR funct. EC50” value was 112 pM.
